Assay [1] addresses T1, N-terminal FLAG-tagged human ROBO4 extracellular region/domain deletion variant hROBO4-225 (human, UniProt Q8WZ75 225-1007).
T1 construct: On transfected HEK293 cells
T1 sequence: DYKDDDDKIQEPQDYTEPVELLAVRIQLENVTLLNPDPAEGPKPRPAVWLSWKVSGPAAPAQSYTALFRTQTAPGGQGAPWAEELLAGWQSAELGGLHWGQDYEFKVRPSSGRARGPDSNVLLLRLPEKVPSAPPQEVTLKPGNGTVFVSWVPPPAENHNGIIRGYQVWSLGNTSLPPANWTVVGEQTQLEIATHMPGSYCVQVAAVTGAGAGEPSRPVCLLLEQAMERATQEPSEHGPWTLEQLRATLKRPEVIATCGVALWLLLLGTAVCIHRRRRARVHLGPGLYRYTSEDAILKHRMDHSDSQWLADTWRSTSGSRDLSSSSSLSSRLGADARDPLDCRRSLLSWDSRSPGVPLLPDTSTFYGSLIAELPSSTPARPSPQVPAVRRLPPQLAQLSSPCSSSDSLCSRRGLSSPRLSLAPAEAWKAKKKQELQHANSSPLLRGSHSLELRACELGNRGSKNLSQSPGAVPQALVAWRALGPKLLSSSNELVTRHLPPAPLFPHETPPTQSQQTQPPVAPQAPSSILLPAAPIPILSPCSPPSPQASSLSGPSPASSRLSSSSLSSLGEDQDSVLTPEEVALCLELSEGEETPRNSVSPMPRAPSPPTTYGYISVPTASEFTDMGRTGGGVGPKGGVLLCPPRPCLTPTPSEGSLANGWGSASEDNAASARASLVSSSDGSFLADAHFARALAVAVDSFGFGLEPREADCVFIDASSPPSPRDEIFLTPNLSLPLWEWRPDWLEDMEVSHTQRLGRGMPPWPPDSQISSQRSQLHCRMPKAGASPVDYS
Kind of assay: flow cytometry, HEK293 cells transfected with pCI-FLAG-hROBO4-225, anti-mouse IgG FITC; control histogram IgG (Mouse IgG2a). The procedure: Each cell suspension prepared in 4)-5-1 was centrifuged, and the supernatant was removed. Then, MAb1, a positive control Monoclonal ANTI-FLAG M2 antibody produced in mouse, or a negative control Mouse IgG2a was added at a concentration of 10 μg/mL to 2×10⁵ expression vector-transfected cells, and the resulting suspension was left standing at 4° C. for 1 hour. The cells were washed once with PBS containing 5% FBS. Then, Anti-Mouse IgG FITC conjugate diluted 1000-fold with PBS containing 5% FBS was added thereto, and the resulting suspension was left standing at 4° C. for 1 hour. The cells were washed with three times with PBS containing 5% FBS, then resuspended in PBS containing 5% FBS, and subjected to detection using a flow cytometer (BD FACSCalibur; BD Biosciences). Data was analyzed using Flowjo. The histogram of FITC fluorescence intensity was prepared. The antibody was determined to bind to a cell when the histogram of MAb1 was shifted to a stronger fluorescence intensity region compared with the histogram of the negative control Mouse IgG2a. […] In this context, each intracellular region/domain deletion variant was confirmed to be expressed on the cell membrane using the positive control anti-FLAG antibody (FIG. 9).

In assay [2] the target is T2, N-terminal FLAG-tagged cynomolgus monkey ROBO4, cynoROBO4-2 (pCI-FLAG-cynoROBO4-2) (cynomolgus monkey, UniProt Q8WZ75 28-1007 (human entry)).
T2 chain: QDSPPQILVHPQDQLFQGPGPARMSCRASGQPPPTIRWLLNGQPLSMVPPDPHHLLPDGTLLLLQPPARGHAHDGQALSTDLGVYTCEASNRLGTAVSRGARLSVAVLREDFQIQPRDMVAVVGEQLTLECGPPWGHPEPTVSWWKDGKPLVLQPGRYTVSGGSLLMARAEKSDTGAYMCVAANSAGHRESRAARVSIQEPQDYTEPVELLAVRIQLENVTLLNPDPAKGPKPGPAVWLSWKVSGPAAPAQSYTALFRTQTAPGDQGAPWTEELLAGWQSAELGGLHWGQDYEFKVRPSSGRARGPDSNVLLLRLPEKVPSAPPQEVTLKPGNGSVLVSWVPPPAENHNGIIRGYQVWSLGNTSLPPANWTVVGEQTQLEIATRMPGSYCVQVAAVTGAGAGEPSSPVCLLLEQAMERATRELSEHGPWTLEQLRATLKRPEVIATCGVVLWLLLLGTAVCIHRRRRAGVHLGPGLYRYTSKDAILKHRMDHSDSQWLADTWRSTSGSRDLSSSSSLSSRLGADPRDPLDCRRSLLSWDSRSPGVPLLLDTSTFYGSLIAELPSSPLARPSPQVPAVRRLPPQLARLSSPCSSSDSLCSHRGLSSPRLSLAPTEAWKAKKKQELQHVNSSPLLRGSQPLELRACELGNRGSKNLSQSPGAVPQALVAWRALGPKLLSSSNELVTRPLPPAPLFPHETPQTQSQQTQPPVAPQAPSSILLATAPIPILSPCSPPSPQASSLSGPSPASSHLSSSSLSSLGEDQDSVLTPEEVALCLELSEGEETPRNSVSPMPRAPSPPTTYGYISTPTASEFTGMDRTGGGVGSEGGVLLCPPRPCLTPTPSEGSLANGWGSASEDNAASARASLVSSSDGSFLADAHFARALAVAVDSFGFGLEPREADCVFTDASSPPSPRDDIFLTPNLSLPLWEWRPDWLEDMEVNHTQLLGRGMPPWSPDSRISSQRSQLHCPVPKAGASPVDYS
In words: flow cytometry (FC500), HEK293 cells transfected with pCI-FLAG-cynoROBO4-2, antibody at 10 µg/mL, FITC goat anti-human IgG Fc; control histogram IgG (human IgG).

B1: anti-ROBO4 mouse monoclonal antibody MAb1 (antibody, mouse IgG1, V domains shown)
VH: EVQLVESGGGLVKPGGSLKLSCAASGFTFSTYAMSWVRQTPEKRLEWVATISNGGTYTYYPDSVKGRFTISRDNAENTLYLQMSSLRSEDTAMYFCARLIYYDYLDYWGHGTTLTVSS
VL: DAVMTQTPLSLPVSLGDQASISCRSSQSLENSNGNTYLNWYFQKPGQSPQLLIYRVSNRFSGVLDRFSGSGSGTDFTLKISRVEAEDFGVYFCLQVTHVPWTFGGGTKLEIKR
notes: Mouse IgG1 (gamma1), kappa light chain, purified from hybridoma supernatant; also called parent antibody MAb1
As for B1, in assay [1], the binding result is recorded as “no binding (tested: 10 µg/mL)”.

B2: humanized MAb1 antibody H-2140 (antibody, human IgG2, kappa, V domains shown)
VH: EVQLVESGGGLVQPGGSLRLSCAASGFTFSTYAMSWVRQAPGKRLEWVATISQGGTYTYYPDSVKGRFTISRDNAKNTLYLQMNSLRAEDTAVYYCARLIYYDYLDYWGQGTLVTVSS
VL: DIVMTQSPLSLPVTLGEPASISCRSSQSLENSNGNTYLNWYLQKPGQSPQLLIYRVSNRFSGVPDRFSGSGSGTDFTLKISRVEAEDVGVYYCLQVTHVPWTFGPGTKVDIKR
notes: Human IgG2 / kappa constant regions; also called hMAb1-H4-type heavy chain + hMAb1-L1-type light chain
For the molecule B2, the binding result in assay [2] is on record as “binds”.

The record behind these values is US20150098945A1 (Daiichi Sankyo, published 2015).
